Consider ten molecules from publication PMC11790492 (Nature Microbiology, 2024).

In data set [1] the target is T1, KorB (Escherichia coli, UniProt P07674). In words: ITC (weak, affinity could not be fitted). Format: binding. Also noted: C-terminally His-tagged KorB (WT).
The target of data set [2] is T1, KorB. In words: ITC; […] Å co-crystal structure (ligand modelled as CTP, sulfur position not assignable). Also noted: ITC: C-terminally His-tagged KorB; crystal: KorB∆N30∆CTD (lacks the 30 N-terminal amino acids, the linker and the CTD). Format: binding. For orientation: Isothermal titration calorimetry measures the heat released or taken up as one component is titrated into another.

Data set [3] deals with KorB (plasmid RK2, expressed in Escherichia coli) (UniProt P07674). In words: BLI. The following applies: BLI and C-trap buffers not given in the material, crystals 10 mM Tris-HCl, 150 mM NaCl pH 8.0 then 1.95 M ammonium sulfate, 0.1 M NaOAc pH 4.6, Eσ70 binding ….
Data set [4] has as its target KorB (wild type), C-terminally His-tagged (plasmid RK2 (Escherichia coli)) (UniProt P07674).
Data set [5] concerns the target T2, Noc (Bacillus subtilis, UniProt P37524).
T2 sequence (P37524 1-283): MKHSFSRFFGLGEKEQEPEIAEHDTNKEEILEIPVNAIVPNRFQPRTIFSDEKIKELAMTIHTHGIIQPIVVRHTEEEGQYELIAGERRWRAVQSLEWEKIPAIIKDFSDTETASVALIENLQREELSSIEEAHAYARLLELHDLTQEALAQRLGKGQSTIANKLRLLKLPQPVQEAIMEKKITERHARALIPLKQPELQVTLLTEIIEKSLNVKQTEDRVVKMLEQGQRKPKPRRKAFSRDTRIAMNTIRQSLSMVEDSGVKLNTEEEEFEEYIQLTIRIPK
Description: CTP hydrolysis rate by phosphate release assay (EnzChek), […] CTP. Type of data set: biochemical.

The target of data set [6] is T1, KorB. Description: ITC; also OB DNA-stimulated CTPase assay. Type of data set: binding. Also noted: C-terminally His-tagged KorB (WT).
The target in data set [7] is T3, ParB (Caulobacter vibrioides, UniProt P0CAV8).
T3 sequence (P0CAV8 1-304): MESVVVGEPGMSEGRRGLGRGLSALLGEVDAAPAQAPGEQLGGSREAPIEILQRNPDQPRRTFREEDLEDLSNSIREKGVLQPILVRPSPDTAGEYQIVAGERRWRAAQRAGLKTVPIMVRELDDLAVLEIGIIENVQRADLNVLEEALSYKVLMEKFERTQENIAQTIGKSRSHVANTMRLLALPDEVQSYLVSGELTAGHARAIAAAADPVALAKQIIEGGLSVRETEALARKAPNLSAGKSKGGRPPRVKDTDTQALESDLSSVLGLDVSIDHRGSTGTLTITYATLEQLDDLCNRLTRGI
Description: CTP hydrolysis rate by phosphate release assay (EnzChek), […] CTP. Format: biochemical.

The subject of data set [8] is AF647-KorA (plasmid RK2). Description: optical tweezers residence time. The following applies: BLI and C-trap buffers not given in the material, crystals 10 mM Tris-HCl, 150 mM NaCl pH 8.0 then 1.95 M ammonium sulfate, 0.1 M NaOAc pH 4.6, Eσ70 binding ….
Data set [9] relates to AF647-KorA (Y84A) (plasmid RK2). Description: optical tweezers residence time. The following applies: unlabelled KorB, 2 mM CTP; BLI and C-trap buffers not given in the material; crystals 10 mM Tris-HCl, 150 mM NaCl pH 8.0 then 1.95 M ammonium sulfate, 0.1 M NaOAc pH 4.6; Eσ70 binding ….
In data set [10] the target is T4, KorB (wild type), C-terminally His-tagged (plasmid RK2 (Escherichia coli), UniProt P07674 1-358).
T4 chain: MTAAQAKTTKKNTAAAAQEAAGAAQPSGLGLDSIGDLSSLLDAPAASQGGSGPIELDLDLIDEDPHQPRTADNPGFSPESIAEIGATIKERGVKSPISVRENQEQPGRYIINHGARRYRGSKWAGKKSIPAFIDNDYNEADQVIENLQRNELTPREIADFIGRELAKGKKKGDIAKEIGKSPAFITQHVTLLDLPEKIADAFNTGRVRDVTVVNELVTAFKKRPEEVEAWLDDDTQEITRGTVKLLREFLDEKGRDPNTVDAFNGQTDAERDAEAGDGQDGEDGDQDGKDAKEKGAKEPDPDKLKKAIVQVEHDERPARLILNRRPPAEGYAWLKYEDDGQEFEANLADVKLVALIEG
In words: ITC.

Data set [11] concerns the molecule itself. In words: crystal structure; KorBΔN30ΔCTD–KorA complex with 14 bp OA DNA duplex, no CTPγS added; 2.7 Å; two KorA, two KorB subunits and one DNA duplex in the asymmetric unit.
The target of data set [12] is T5, KorB (wild type), C-terminally His-tagged (plasmid RK2 (Escherichia coli), UniProt P07674 1-358).
T5 sequence (looked up): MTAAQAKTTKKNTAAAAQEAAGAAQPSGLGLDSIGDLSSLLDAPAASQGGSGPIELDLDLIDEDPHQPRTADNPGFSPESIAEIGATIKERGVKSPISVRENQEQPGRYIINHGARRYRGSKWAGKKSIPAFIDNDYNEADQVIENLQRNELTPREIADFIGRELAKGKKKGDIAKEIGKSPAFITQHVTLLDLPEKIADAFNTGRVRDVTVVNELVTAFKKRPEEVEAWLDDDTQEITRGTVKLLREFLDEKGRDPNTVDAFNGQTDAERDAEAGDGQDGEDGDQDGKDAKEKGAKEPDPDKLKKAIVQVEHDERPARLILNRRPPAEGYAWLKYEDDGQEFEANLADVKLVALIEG
In words: cell-based or functional assay.

Data set [13] deals with E. coli RNAP core;σ70 (Escherichia coli;Escherichia coli, UniProt P0A7Z4;P0A8V2;P0A8T7;P0A800;P00579 1-329;1-1342;1-1407;2-91;1-613, |). Description: native MS; no KorA/KorB; BLI and C-trap buffers not given in the material; crystals 10 mM Tris-HCl, 150 mM NaCl pH 8.0 then 1.95 M ammonium sulfate, 0.1 M NaOAc pH 4.6; Eσ70 binding and. The following applies: protein: recombinant;recombinant; tags: His10-PPX;His-SUMO, cleaved; chain copies: 2;1;1;1;1; blunt.

Data set [14] concerns the target KorBΔN30ΔCTD;KorA (plasmid RK2;plasmid RK2, UniProt P07674;P03052 31-252;1-101, |). Description: X-ray crystallography; no CTPγS added; sulfates; BLI and C-trap buffers not given in the material; crystals 10 mM Tris-HCl, 150 mM NaCl pH 8.0 then 1.95 M ammonium sulfate, 0.1 M NaOAc pH 4.6; Eσ70 binding and. Particulars: protein: recombinant;recombinant; tags: His-tagged;C-terminal His6 (pET21b); chain copies: 2;2; blunt, self-complementary, 2 copies.

Data set [15] concerns the molecule itself. In words: cross-linking; BMOE (1 mM) cysteine cross-linking of 8 µM KorB variant dimer ± 1 mM CTP or CTPγS ± 24 bp OB or scrambled DNA; 10 mM Tris–HCl pH 7.4, 100 mM NaCl, 1 mM MgCl2; room temperature; SDS–PAGE, band quantification.

As a reminder, the Kd is the concentration at which binding is half-saturated. A lower Kd goes with higher affinity.

With `Nc1ccn([C@@H]2O[C@H](COP(=O)(O)OP(=O)(O)O)[C@@H](O)[C@H]2O)c(=O)n1` [CDP], the “ITC (weak, affinity could not be fitted)” value in data set [1] is recorded as “KorB binding to CDP was qualitatively much weaker than to CTP, but the data precluded the estimation”. In turn, `Nc1ccn([C@@H]2O[C@H](COP(=O)(O)OP(=O)(O)OP(O)(O)=S)[C@@H](O)[C@H]2O)c(=O)n1` [CTPɣS, cytidine-5′-(3-thiotriphosphate)] registered a Kd in data set [2] of 0.4 ± 0.1 µM. Turning to 40-bp OB DNA, the values for the Kd in [3] (1 mM CTP) and in [3] (no CTP) were 60 µM and 0.14 µM, respectively. Take “AF647–KorA: KorA with an extra C-terminal cysteine, C-terminally His-tagged, labelled with Alexa Fluor 647 (from UniProt P03052) (natural protein)”: the change of the residence time of AF647–KorA at OA on DNA (optical tweezers) with unlabelled KorB and CTP, against KorA with or without apo-KorB in data set [4] is 4.5 fold. Turning to `Nc1ccn([C@@H]2O[C@H](COP(=O)(O)OP(=O)(O)OP(=O)(O)O)[C@@H](O)[C@H]2O)c(=O)n1` [CTP], the “CTP hydrolysis rate by phosphate release assay (EnzChek), 1 mM CTP” value in data set [5] is “CTP hydrolysis rates of KorB, C. crescentus ParB, and B. subtilis Noc were measured by continuous detection”; in [7], “CTP hydrolysis rates of KorB, C. crescentus ParB, and B. subtilis Noc were measured by continuous detection”. The molecule further came in with a Kd in [6] of 4.5 ± 0.5 µM. As for “C-trap DNA 8xOB + 1xOA (22,394 bp; also ligated as 44.8 kb tandem)”, the binding in [8] (unlabelled KorB (F249A), 2 mM CTP) worked out at 3.07 s; in data set [8] (unlabelled KorB, 2 mM CTP) it was 10.1 s; in data set [8] (unlabelled KorB, no CTP) it was 2.61 s; in [9], 3.72 s.

B1: KorA (wild type), C-terminally His-tagged (natural protein, plasmid RK2 (Escherichia coli))
chain: MKKRLTESQFQEAIQGLEVGQQTIEIARGVLVDGKPQATFATSLGLTRGAVSQAVHRVWAAFEDKNLPEGYARVTAVLPEHQAYIVRKWEADAKKKQETKR
notes: KorA of plasmid RK2, wild type; cysteine-less; expected monomer mass in nMS 12,825.6 Da; also called KorA (WT); KorA–(his)6; source: E. coli Rosetta (BL21 DE3) pLysS, pET21b, purified (HisTrap, Heparin, Superdex 75); not shown: His6, C-terminal, kept
In data set [10], B1 showed a Kd of 4.2 µM. In addition, in [11], the binding result is given as “binds”. In data set [12], the “fold of repression of a promoter–xylE reporter (OB 1.5 kb upstream of the core promoter, OA over the −10 element) in E. coli with WT KorA and WT KorB co-expressed” value was ~38000 fold.

B2: PkorA 100 bp (nMS) (dsDNA)
DNA 1: GTTACGCCAAGGACGAGTTTTAGCGGCTAAAGGTGTTGACGTGCGAGAAATGTTTAGCTAAACTTCTCTCATGTGCTGGCGGCTGTCACCGCTATGTTCA
DNA 2: TGAACATAGCGGTGACAGCCGCCAGCACATGAGAGAAGTTTAGCTAAACATTTCTCGCACGTCAACACCTTTAGCCGCTAAAACTCGTCCTTGGCGTAAC
Turning to B2, the binding result in data set [13] is listed as “binds”.

B3: 14 bp OA (dsDNA)
DNA 1: TGTTTAGCTAAACA
DNA 2: TGTTTAGCTAAACA
For B3, in [14], the binding result is recorded as “binds”.

B4: KorB (K351C), C-terminally His-tagged (natural protein)
chain: MTAAQAKTTKKNTAAAAQEAAGAAQPSGLGLDSIGDLSSLLDAPAASQGGSGPIELDLDLIDEDPHQPRTADNPGFSPESIAEIGATIKERGVKSPISVRENQEQPGRYIINHGARRYRGSKWAGKKSIPAFIDNDYNEADQVIENLQRNELTPREIADFIGRELAKGKKKGDIAKEIGKSPAFITQHVTLLDLPEKIADAFNTGRVRDVTVVNELVTAFKKRPEEVEAWLDDDTQEITRGTVKLLREFLDEKGRDPNTVDAFNGQTDAERDAEAGDGQDGEDGDQDGKDAKEKGAKEPDPDKLKKAIVQVEHDERPARLILNRRPPAEGYAWLKYEDDGQEFEANLADVCLVALIEG
In the case of B4, the binding result in data set [15] is on record as “binds”.
